Results as given in US20100034812A1.
Where two headings read alike, the source gives them in different places.

What was measured:
[1] = target: recombinant birch pollen allergen Bet v 1 (Betula verrucosa) (UniProt P15494); experiment: ELISA, IgE of control serum on rBet v 1 after clone 2
[2] = target: recombinant birch pollen allergen Bet v 1 (Betula verrucosa) (UniProt P15494); experiment: ELISA, IgE of control serum on rBet v 1 after clone 12
[3] = target: recombinant birch pollen allergen Bet v 1 (Betula verrucosa) (UniProt P15494); experiment: ELISA, IgE of control serum on rBet v 1 after clone 13
[4] = target: recombinant birch pollen allergen Bet v 1 (Betula verrucosa) (UniProt P15494); experiment: ELISA, IgE of non-allergic control serum on rBet v 1
[5] = target: recombinant birch pollen allergen Bet v 1 (Betula verrucosa) (UniProt P15494); experiment: ELISA, IgE of control serum on rBet v 1 after clone 12; remark: listed apart in the source
[6] = target: recombinant birch pollen allergen Bet v 1 (Betula verrucosa) (UniProt P15494); experiment: ELISA, IgE of control serum on rBet v 1 after clone 10
[7] = target: recombinant birch pollen allergen Bet v 1 (Betula verrucosa) (UniProt P15494); experiment: ELISA, IgE of control serum on rBet v 1 after clone 4
[8] = target: recombinant birch pollen allergen Bet v 1 (Betula verrucosa) (UniProt P15494); experiment: as above; remark: listed apart in the source
[9] = target: recombinant birch pollen allergen Bet v 1 (Betula verrucosa) (UniProt P15494); experiment: ELISA, IgE of control serum on rBet v 1 after clone 2; remark: listed apart in the source
[10] = target: recombinant birch pollen allergen Bet v 1 (Betula verrucosa) (UniProt P15494); experiment: ELISA, IgE of control serum on rBet v 1 after clone 13; remark: listed apart in the source
[11] = target: recombinant birch pollen allergen Bet v 1 (Betula verrucosa) (UniProt P15494); experiment: ELISA, IgE of non-allergic control serum on rBet v 1; remark: listed apart in the source
[12] = target: recombinant birch pollen allergen Bet v 1 (Betula verrucosa) (UniProt P15494); experiment: ELISA, IgE of control serum on rBet v 1 after clone 10; remark: listed apart in the source

Sequence of UniProt P15494 (P15494 2-160 limits assumed): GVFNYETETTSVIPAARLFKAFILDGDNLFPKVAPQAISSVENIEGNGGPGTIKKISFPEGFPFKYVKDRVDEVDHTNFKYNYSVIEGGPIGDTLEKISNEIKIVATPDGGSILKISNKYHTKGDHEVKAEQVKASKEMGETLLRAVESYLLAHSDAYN

serum from a non-allergic person (antibody)
OD with mAb [1]: 0.03 OD | OD with mAb [2]: 0.04 OD | OD with mAb [3]: 0.15 OD | OD without mAb [4]: 0.03 OD | OD with mAb [5]: 0.14 OD | OD with mAb [6]: 0.09 OD | OD with mAb [7]: 0.04 OD | OD with mAb [8]: 0.09 OD | OD with mAb [9]: 0.09 OD | OD with mAb [10]: 0.08 OD | OD without mAb [11]: 0.06 OD | OD with mAb [12]: 0.03 OD
